T1: cyno TfR extracellular domain (analogous construct to human TfR ecd) (cynomolgus monkey, UniProt Q5RDH6 87-760 (Pongo abelii entry))
T1 construct: also called cynoTfR ecd
T1 chain: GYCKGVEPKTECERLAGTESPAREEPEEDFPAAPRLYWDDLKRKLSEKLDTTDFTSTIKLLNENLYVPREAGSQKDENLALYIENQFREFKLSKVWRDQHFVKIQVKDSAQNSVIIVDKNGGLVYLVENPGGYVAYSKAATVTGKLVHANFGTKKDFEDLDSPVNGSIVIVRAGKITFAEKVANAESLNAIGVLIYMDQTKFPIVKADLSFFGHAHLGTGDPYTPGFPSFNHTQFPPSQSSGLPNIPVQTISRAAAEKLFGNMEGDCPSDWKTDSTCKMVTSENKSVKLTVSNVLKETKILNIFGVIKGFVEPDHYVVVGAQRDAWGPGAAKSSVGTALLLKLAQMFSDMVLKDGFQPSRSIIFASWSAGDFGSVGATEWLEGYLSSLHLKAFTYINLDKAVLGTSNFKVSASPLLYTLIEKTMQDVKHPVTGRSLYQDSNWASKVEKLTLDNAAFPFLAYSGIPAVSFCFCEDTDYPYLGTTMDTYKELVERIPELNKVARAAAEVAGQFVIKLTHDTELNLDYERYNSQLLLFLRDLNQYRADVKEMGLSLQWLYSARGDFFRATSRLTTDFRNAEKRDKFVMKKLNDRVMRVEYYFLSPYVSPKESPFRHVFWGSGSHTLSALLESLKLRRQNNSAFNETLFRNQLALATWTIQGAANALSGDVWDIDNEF


Experiments:
human BACE1 ECD [1] = target: T2, human BACE1 ECD; test: Octet, pH 5.0;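 also: antibodies captured on anti-human capture sensor tips, dissociation monitored in PBS with BSA buffer, kinetics fitted with a one-to-one binding model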
T2 construct: analyte of the Octet assay (200 nM) and enzyme of the first short substrate assay; also called human BACE1 extracellular domain
T2 sequence (single chain, as listed by the source limits assumed): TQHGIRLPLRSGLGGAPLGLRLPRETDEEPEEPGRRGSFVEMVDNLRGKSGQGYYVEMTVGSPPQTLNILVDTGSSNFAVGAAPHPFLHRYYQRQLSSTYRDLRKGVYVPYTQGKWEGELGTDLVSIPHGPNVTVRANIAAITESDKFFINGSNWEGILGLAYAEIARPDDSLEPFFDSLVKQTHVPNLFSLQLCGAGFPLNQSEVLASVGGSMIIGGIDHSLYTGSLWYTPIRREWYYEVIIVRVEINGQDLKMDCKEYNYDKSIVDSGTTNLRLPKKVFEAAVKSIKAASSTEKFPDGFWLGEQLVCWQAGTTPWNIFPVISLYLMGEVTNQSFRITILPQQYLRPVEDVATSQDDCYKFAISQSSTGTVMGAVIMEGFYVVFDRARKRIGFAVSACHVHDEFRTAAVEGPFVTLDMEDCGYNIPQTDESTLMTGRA
Method: (§1) Anti-BACE1 antibodies were loaded onto anti-human capture (AHC) sensors (tips) followed by 60 seconds baseline in assay buffer. […] Tips were transferred to assay buffer for 5 minutes, 30 minutes, or 120 minutes depending on the off-rate, for off-rate measurement. Assay buffer was either PBS+0.1% BSA, pH 7.5; or PBS+0.1% BSA, pH 5.0. Kinetics were analyzed using a 1:1 binding model.

murine BACE1 ECD [2] = target: T3, murine BACE1 ECD; test: Octet, pH 5.0;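 also: antibodies captured on anti-human capture sensor tips, dissociation monitored in PBS with BSA buffer, kinetics fitted with a one-to-one binding model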
T3 construct: analyte of the Octet assay (200 nM) and enzyme of the first short substrate assay
T3 sequence (single chain, as listed by the source limits assumed): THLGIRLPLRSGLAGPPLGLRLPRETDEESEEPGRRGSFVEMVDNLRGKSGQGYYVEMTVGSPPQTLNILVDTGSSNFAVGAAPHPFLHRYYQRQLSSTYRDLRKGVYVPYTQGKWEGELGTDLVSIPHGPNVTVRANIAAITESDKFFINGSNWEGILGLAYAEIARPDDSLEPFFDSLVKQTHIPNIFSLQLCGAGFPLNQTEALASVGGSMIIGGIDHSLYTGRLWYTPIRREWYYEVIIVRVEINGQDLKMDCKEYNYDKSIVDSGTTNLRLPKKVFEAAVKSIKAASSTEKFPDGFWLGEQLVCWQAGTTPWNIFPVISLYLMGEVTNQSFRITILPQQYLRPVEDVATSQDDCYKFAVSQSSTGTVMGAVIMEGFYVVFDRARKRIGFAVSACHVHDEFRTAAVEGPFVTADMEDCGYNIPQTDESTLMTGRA
Method: as §1

[3] = target: BACE1 in primary mouse cortical neurons (mouse, UniProt P56818 46-501); test: cell-based or functional assay
Chain of BACE1 in primary mouse cortical neurons (P56818 46-501): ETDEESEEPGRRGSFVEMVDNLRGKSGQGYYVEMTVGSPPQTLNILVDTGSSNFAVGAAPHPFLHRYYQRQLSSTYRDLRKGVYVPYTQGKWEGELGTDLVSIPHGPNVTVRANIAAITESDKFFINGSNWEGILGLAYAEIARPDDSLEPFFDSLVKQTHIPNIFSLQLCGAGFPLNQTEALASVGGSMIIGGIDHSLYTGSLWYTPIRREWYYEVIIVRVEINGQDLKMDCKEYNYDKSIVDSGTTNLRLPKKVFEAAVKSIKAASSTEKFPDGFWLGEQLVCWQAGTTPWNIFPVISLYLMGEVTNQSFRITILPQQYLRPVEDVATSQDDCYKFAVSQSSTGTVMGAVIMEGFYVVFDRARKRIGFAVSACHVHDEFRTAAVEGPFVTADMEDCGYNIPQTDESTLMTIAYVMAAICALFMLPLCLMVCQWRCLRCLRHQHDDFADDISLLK

human BACE1 ECD [4] = target: T2, human BACE1 ECD; test: Octet, pH 7.5;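 also: antibodies captured on anti-human capture sensor tips, dissociation monitored in PBS with BSA, Kd obtained from kinetic fit to a one-to-one binding model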
Method: as §1

murine BACE1 ECD [5] = target: T3, murine BACE1 ECD; test: Octet, pH 7.5;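 also: antibodies captured on anti-human capture sensor tips, dissociation monitored in PBS with BSA, Kd obtained from kinetic fit to a one-to-one binding model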
Method: as §1

[6] = target: T1, cyno TfR extracellular domain …; test: ELISA, TfR-coated plate, IgG in culture supernatant;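 also: human or cynomolgus TfR coated at 2 µg/mL, supernatant IgG titrated in 1:5 steps for 1 h, bound antibody read with HRP anti-human Fcγ and TMB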
Method: (§2) The Hu/Cy binding ELISA was performed in maxisorp plates coated with 2 μg/ml of purified human or cyno TfR in PBS at 4° C. overnight. Plates were washed with PBS/0.05% Tween 20 and blocked using Superblock blocking buffer in PBS (Thermo Scientific, Hudson, N.H.). Cell culture supernatants containing the expressed Ala scan variant IgGs were serially diluted 1:5 and added to the wells for 1 h. Plates were washed with PBS/0.05% Tween 20 and 1:1000 diluted HRP-Goat-anti human Fcγ (Jackson ImmunoResearch) was added the plate and incubated for 1 hour at room temperature. Plates were washed with PBS/0.05% Tween 20 and detected using TMB substrate (BioFX Laboratories, Owings Mills).

[7] = target: T4, human TfR extracellular domain with N-terminal His tag (human, UniProt P02786 89-760); test: as above
T4 construct: Biotinylated in some assays; also called huTfR; HuTfR
Method: as §2

[8] = target: T4, human TfR extracellular domain with …; test: SPR, TfR captured by anti-His, Fab injected;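 also: single cycle kinetics with a Fab dilution series, fitted by a one-to-one Langmuir model or a steady state model, KD taken as koff over kon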
Target sequence in this assay (P02786 89-760 G142S): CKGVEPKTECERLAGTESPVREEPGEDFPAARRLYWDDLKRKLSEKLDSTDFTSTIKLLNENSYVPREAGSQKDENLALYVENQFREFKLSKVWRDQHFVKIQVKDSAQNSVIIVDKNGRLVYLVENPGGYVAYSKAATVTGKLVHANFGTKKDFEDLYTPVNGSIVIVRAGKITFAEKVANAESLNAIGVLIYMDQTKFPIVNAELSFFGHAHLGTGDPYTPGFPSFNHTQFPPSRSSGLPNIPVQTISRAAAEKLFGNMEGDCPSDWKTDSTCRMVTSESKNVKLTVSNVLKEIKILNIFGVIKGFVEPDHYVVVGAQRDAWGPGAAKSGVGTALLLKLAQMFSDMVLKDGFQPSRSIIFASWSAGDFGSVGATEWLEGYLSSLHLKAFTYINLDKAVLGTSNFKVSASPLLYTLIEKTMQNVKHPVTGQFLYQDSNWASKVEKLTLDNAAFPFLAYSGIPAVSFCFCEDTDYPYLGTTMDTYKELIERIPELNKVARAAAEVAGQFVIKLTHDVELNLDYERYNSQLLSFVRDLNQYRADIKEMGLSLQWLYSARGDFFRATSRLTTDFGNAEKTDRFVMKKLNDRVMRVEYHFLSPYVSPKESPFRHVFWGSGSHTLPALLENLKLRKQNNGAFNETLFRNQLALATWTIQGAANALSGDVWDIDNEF

EC50 [6]	EC50 [7]	also measured	Binder
		Kd (human BACE1 ECD [1]): < 0.25 nM; Kd (murine BACE1 ECD [2]): < 0.29 nM; IC50, Abeta x-40 in mouse cortical neurons [3]: 7.2 nM; maximal % inhibition of Abeta x-40 [3]: 69%; Kd (human BACE1 ECD [4]): < 0.32 nM; Kd (murine BACE1 ECD [5]): < 0.29 nM	5987 (antibody, V domains shown, anti-BACE1 IgG) VH: QVQLVQSGAEVKKPGSSVKVSCKASGGTLSGYAISWVRQAPGQGLEWMGNIIPGFGTANYAQKSQGRVTITADESTSTAYMELSSLRSEDTAVYYCARSGGTRYGMLDVWGQGTMVTVSS VL: EIVMTQSPATLSVSPGERATLSCRASQSVSSNLAWYQQKPGQAPRLLIYGASTRATGIPARFSGSGSGTEFTLTISSLQSEDFAVYYCQQLFLWPPRTFGGGTKVEIK
0.4 ng/mL	0.1 ng/mL		hu15G11.v5 IgG Ala variant R24A (HVR-L1) (antibody, V domains shown, IgG in cell culture supernatant) VH: EVQLVQSGAEVKKPGASVKVSCKASGYTFTSYWMHWVRQAPGQRLEWIGEINPTNGRTNYIEKFKSRATLTVDKSASTAYMELSSLRSEDTAVYYCARGTRAYHYWGQGTMVTVSS VL: DIQMTQSPSSLSASVGDRVTITCAASDNLYSNLAWYQQKPGKSPKLLVYDATNLADGVPSRFSGSGSGTDYTLTISSLQPEDFATYYCQHFWGTPLTFGQGTKVEIK
5410 ng/mL	55.1 ng/mL		hu15G11.v5 IgG Ala variant R56A (HVR-H2) (antibody, name in Kabat numbering, V domains shown, IgG in cell culture supernatant; Kabat numbers after 52a lie one below the linear count) VH: EVQLVQSGAEVKKPGASVKVSCKASGYTFTSYWMHWVRQAPGQRLEWIGEINPTNGATNYIEKFKSRATLTVDKSASTAYMELSSLRSEDTAVYYCARGTRAYHYWGQGTMVTVSS VL: DIQMTQSPSSLSASVGDRVTITCRASDNLYSNLAWYQQKPGKSPKLLVYDATNLADGVPSRFSGSGSGTDYTLTISSLQPEDFATYYCQHFWGTPLTFGQGTKVEIK
0.6 ng/mL	0.2 ng/mL		hu15G11.v5 IgG Ala variant S26A (HVR-L1) (antibody, V domains shown, IgG in cell culture supernatant) VH: EVQLVQSGAEVKKPGASVKVSCKASGYTFTSYWMHWVRQAPGQRLEWIGEINPTNGRTNYIEKFKSRATLTVDKSASTAYMELSSLRSEDTAVYYCARGTRAYHYWGQGTMVTVSS VL: DIQMTQSPSSLSASVGDRVTITCRAADNLYSNLAWYQQKPGKSPKLLVYDATNLADGVPSRFSGSGSGTDYTLTISSLQPEDFATYYCQHFWGTPLTFGQGTKVEIK
0.1 ng/mL	0.05 ng/mL		hu15G11.v5 IgG Ala variant S31A (HVR-H1) (antibody, name in Kabat numbering, V domains shown, IgG in cell culture supernatant; also called S31A (heavy chain)) VH: EVQLVQSGAEVKKPGASVKVSCKASGYTFTAYWMHWVRQAPGQRLEWIGEINPTNGRTNYIEKFKSRATLTVDKSASTAYMELSSLRSEDTAVYYCARGTRAYHYWGQGTMVTVSS VL: DIQMTQSPSSLSASVGDRVTITCRASDNLYSNLAWYQQKPGKSPKLLVYDATNLADGVPSRFSGSGSGTDYTLTISSLQPEDFATYYCQHFWGTPLTFGQGTKVEIK
0.7 ng/mL	0.3 ng/mL		hu15G11.v5 IgG Ala variant S31A (HVR-L1) (antibody, V domains shown, IgG in cell culture supernatant; also called S31A (light chain)) VH: EVQLVQSGAEVKKPGASVKVSCKASGYTFTSYWMHWVRQAPGQRLEWIGEINPTNGRTNYIEKFKSRATLTVDKSASTAYMELSSLRSEDTAVYYCARGTRAYHYWGQGTMVTVSS VL: DIQMTQSPSSLSASVGDRVTITCRASDNLYANLAWYQQKPGKSPKLLVYDATNLADGVPSRFSGSGSGTDYTLTISSLQPEDFATYYCQHFWGTPLTFGQGTKVEIK
0.7 ng/mL	0.2 ng/mL		hu15G11.v5 IgG Ala variant S65A (HVR-H2) (antibody, name in Kabat numbering, V domains shown, IgG in cell culture supernatant; Kabat numbers after 52a lie one below the linear count) VH: EVQLVQSGAEVKKPGASVKVSCKASGYTFTSYWMHWVRQAPGQRLEWIGEINPTNGRTNYIEKFKARATLTVDKSASTAYMELSSLRSEDTAVYYCARGTRAYHYWGQGTMVTVSS VL: DIQMTQSPSSLSASVGDRVTITCRASDNLYSNLAWYQQKPGKSPKLLVYDATNLADGVPSRFSGSGSGTDYTLTISSLQPEDFATYYCQHFWGTPLTFGQGTKVEIK
0.8 ng/mL	0.4 ng/mL		hu15G11.v5 IgG Ala variant T28A (HVR-H1) (antibody, name in Kabat numbering, V domains shown, IgG in cell culture supernatant) VH: EVQLVQSGAEVKKPGASVKVSCKASGYAFTSYWMHWVRQAPGQRLEWIGEINPTNGRTNYIEKFKSRATLTVDKSASTAYMELSSLRSEDTAVYYCARGTRAYHYWGQGTMVTVSS VL: DIQMTQSPSSLSASVGDRVTITCRASDNLYSNLAWYQQKPGKSPKLLVYDATNLADGVPSRFSGSGSGTDYTLTISSLQPEDFATYYCQHFWGTPLTFGQGTKVEIK
0.9 ng/mL	0.4 ng/mL		hu15G11.v5 IgG Ala variant T30A (HVR-H1) (antibody, name in Kabat numbering, V domains shown, IgG in cell culture supernatant) VH: EVQLVQSGAEVKKPGASVKVSCKASGYTFASYWMHWVRQAPGQRLEWIGEINPTNGRTNYIEKFKSRATLTVDKSASTAYMELSSLRSEDTAVYYCARGTRAYHYWGQGTMVTVSS VL: DIQMTQSPSSLSASVGDRVTITCRASDNLYSNLAWYQQKPGKSPKLLVYDATNLADGVPSRFSGSGSGTDYTLTISSLQPEDFATYYCQHFWGTPLTFGQGTKVEIK
0.3 ng/mL	0.2 ng/mL		hu15G11.v5 IgG Ala variant T52A (HVR-L2) (antibody, V domains shown, IgG in cell culture supernatant) VH: EVQLVQSGAEVKKPGASVKVSCKASGYTFTSYWMHWVRQAPGQRLEWIGEINPTNGRTNYIEKFKSRATLTVDKSASTAYMELSSLRSEDTAVYYCARGTRAYHYWGQGTMVTVSS VL: DIQMTQSPSSLSASVGDRVTITCRASDNLYSNLAWYQQKPGKSPKLLVYDAANLADGVPSRFSGSGSGTDYTLTISSLQPEDFATYYCQHFWGTPLTFGQGTKVEIK
0.7 ng/mL	0.3 ng/mL		hu15G11.v5 IgG Ala variant T53A (HVR-H2) (antibody, V domains shown, IgG in cell culture supernatant; also called 15G11.T53A; 15G11.53A) VH: EVQLVQSGAEVKKPGASVKVSCKASGYTFTSYWMHWVRQAPGQRLEWIGEINPANGRTNYIEKFKSRATLTVDKSASTAYMELSSLRSEDTAVYYCARGTRAYHYWGQGTMVTVSS VL: DIQMTQSPSSLSASVGDRVTITCRASDNLYSNLAWYQQKPGKSPKLLVYDATNLADGVPSRFSGSGSGTDYTLTISSLQPEDFATYYCQHFWGTPLTFGQGTKVEIK
1 ng/mL	0.3 ng/mL		hu15G11.v5 IgG Ala variant Y30A (HVR-L1) (antibody, V domains shown, IgG in cell culture supernatant) VH: EVQLVQSGAEVKKPGASVKVSCKASGYTFTSYWMHWVRQAPGQRLEWIGEINPTNGRTNYIEKFKSRATLTVDKSASTAYMELSSLRSEDTAVYYCARGTRAYHYWGQGTMVTVSS VL: DIQMTQSPSSLSASVGDRVTITCRASDNLASNLAWYQQKPGKSPKLLVYDATNLADGVPSRFSGSGSGTDYTLTISSLQPEDFATYYCQHFWGTPLTFGQGTKVEIK
1.4 ng/mL	0.4 ng/mL		hu15G11.v5 IgG Ala variant Y32A (HVR-H1) (antibody, name in Kabat numbering, V domains shown, IgG in cell culture supernatant) VH: EVQLVQSGAEVKKPGASVKVSCKASGYTFTSAWMHWVRQAPGQRLEWIGEINPTNGRTNYIEKFKSRATLTVDKSASTAYMELSSLRSEDTAVYYCARGTRAYHYWGQGTMVTVSS VL: DIQMTQSPSSLSASVGDRVTITCRASDNLYSNLAWYQQKPGKSPKLLVYDATNLADGVPSRFSGSGSGTDYTLTISSLQPEDFATYYCQHFWGTPLTFGQGTKVEIK
0.7 ng/mL	0.3 ng/mL		hu15G11.v5 IgG Ala variant Y59A (HVR-H2) (antibody, name in Kabat numbering, V domains shown, IgG in cell culture supernatant; Kabat numbers after 52a lie one below the linear count) VH: EVQLVQSGAEVKKPGASVKVSCKASGYTFTSYWMHWVRQAPGQRLEWIGEINPTNGRTNAIEKFKSRATLTVDKSASTAYMELSSLRSEDTAVYYCARGTRAYHYWGQGTMVTVSS VL: DIQMTQSPSSLSASVGDRVTITCRASDNLYSNLAWYQQKPGKSPKLLVYDATNLADGVPSRFSGSGSGTDYTLTISSLQPEDFATYYCQHFWGTPLTFGQGTKVEIK
		Kd [8]: 0.686 nM; koff [8]: 0.00153 s⁻¹; kon [8]: 2.24e+06 M⁻¹ s⁻¹	Hu7A4.v5.Fab (Fab, V domains shown, Fab) VH: EVQLVQSGAEVKKPGASVKVSCKASGYTFTDYAMHWVRQAPGQGLEWMGGISTYFGRTNYNQKFKGRVTMTRDTSISTAYMELSRLRSDDTAVYYCARGLSGNYVMDYWGQGTTVTVSS VL: DIVMTQSPDSLAVSLGERATINCRASESVDSYGNSFMHWYQQKPGQPPKLLIYRASNLESGIPDRFSGSGSGTDFTLTISSLQAEDVAVYYCQQSNEGPPTFGQGTKLEIK
		Kd [8]: 1.15 nM; koff [8]: 0.00107 s⁻¹; kon [8]: 928000 M⁻¹ s⁻¹	Hu7A4.v8.Fab (Fab, V domains shown, Fab) VH: EVQLVQSGAEVKKPGASVKVSCKGSGYTFTDYAMHWVRQAPGQGLEWMGGISTYFGRTNYNQKFKGRVTMTVDTSISTAYMELSRLRSDDTAVYYCARGLSGNYVMDYWGQGTTVTVSS VL: DIVMTQSPDSLAVSLGERATINCRASESVDSYGNSFMHWYQQKPGQPPKLLIYRASNLESGIPDRFSGSGSGTDFTLTISSLQAEDVAVYYCQQSNEGPPTFGQGTKLEIK

Source: US20180057604A1 (Genentech, published 2018)
